Assay results reported in US20170166621A1 (Novartis, published 2017).

B1: GLP-1(7-35; A8S)-GSGGGGSGGG-FGF21(33-209; Q56E-D74H-Q82E-R105K-K150R-R154C-40 kDa branched PEG-R159Q-S195A) (ligand)
chain: HSEGTFTSDVSSYLEGQAAKEFIAWLVKGGSGGGGSGGGDSSPLLQFGGQVRQRYLYTDDAQETEAHLEIREDGTVGGAAHQSPESLLELKALKPGVIQILGVKTSRFLCQKPDGALYGSLHFDPEACSFRELLLEDGYNVYQSEAHGLPLHLPGNRSPHCDPAPQGPARFLPLPGLPPALPEPPGILAPQPPDVGSSDPLAMVGPSQGRSPSYAS
modifications: 40 kDa branched PEG on Cys at R154C (FGF21 numbering)
B2: GLP-1(7-35; A8S)-SGGGGSGGG-FGF21(33-194; R154C-40 kDa branched PEG) (ligand)
chain: HSEGTFTSDVSSYLEGQAAKEFIAWLVKGGSGGGGSGGGDSSPLLQFGGQVRQRYLYTDDAQQTEAHLEIREDGTVGGAADQSPESLLQLKALKPGVIQILGVKTSRFLCQRPDGALYGSLHFDPEACSFRELLLEDGYNVYQSEAHGLPLHLPGNKSPHCDPAPRGPARFLPLPGLPPALPEPPGILAPQPPDVGSSDPLS
modifications: 40 kDa branched PEG on Cys at R154C (FGF21 numbering)

Tests used:
GLP-1 receptor = GLP-1 receptor (UniProt P43220 24-463, limits assumed); assay: cell-based or functional assay
FGF21 receptor = assay: cell-based or functional assay

Binder | cAMP EC50 (fold-Ex-4); GLP-1R only cells (GLP-1 receptor) [fold] | cAMP EC50 (fold-Ex-4); GLP-1R/FGFR1c/beta-klotho cells (GLP-1 receptor) [fold] | cAMP EC50 (nM); GLP-1R only cells (GLP-1 receptor) [nM] | cAMP EC50 (nM); GLP-1R/FGFR1c/beta-klotho cells (GLP-1 receptor) [nM] | potency in the FGF21 receptor assay (FGF21 receptor) [fold less potent] | cAMP EC50 (fold-Ex-4); GLP-1R only cells; V253 + V76 co-treatment (GLP-1 receptor) [fold] | cAMP EC50 (fold-Ex-4); GLP-1R/FGFR1c/beta-klotho cells; V253 + V76 co-treatment (GLP-1 receptor) [fold] | cAMP EC50 (nM); GLP-1R only cells; V253 + V76 co-treatment (GLP-1 receptor) [nM] | cAMP EC50 (nM); GLP-1R/FGFR1c/beta-klotho cells; V253 + V76 co-treatment (GLP-1 receptor) [nM]
B1 | 6 | 0.4 | 64 | 2.4 | – | – | – | – | –
B2 | 3.2 | 4.1 | 34 | 24 | ≥ 1000 | 3.5 | 2.1 | 38 | 12
